The chains are these.
B1: CCDC93 DBD (305-433), untagged (domain or fragment, human, UniProt Q567U6 305-433, looked up)
chain: SPEKLGTSQLHRRKVISLNKQIAQKTKHLEELRASHTSLQARYNEAKKTLTELKTYSEKLDKEQAALEKIESKADPSILQNLRALVAMNENLKSQEQEFKAHCREEMTRLQQEIENLKAERAPRGDEKT
notes: CCDC93, human, DBD; source: E. coli BL21 (DE3) T1R, purified, MBP removed with TEV; not shown: MBP, N-terminal, cleaved
B2: MBP-CCDC93 (305-433) (domain or fragment, human, UniProt Q567U6 305-433, looked up)
chain: B1 chain
notes: CCDC93, human, DBD; also called MBP-CCDC93 DBD; source: E. coli BL21 (DE3) T1R, purified (amylose); not shown: MBP, N-terminal, kept
B3: CCDC22 DBD (280-446), untagged (domain or fragment, human, UniProt O60826 280-446, looked up)
chain: GAGAKTGAPKGSRFTHSEKFTFHLEPQAQATQVSDVPATSRRPEQVTWAAQEQELESLREQLEGVNRSIEEVEADMKTLGVSFVQAESECRHSKLSTAEREQALRLKSRAVELLPDGTANLAKLQLVVENSAQRVIHLAGQWEKHRVPLLAEYRHLRKLQDCRELES
notes: CCDC22, human, DBD; source: E. coli BL21 (DE3) T1R, purified, MBP removed with TEV; not shown: MBP, N-terminal, cleaved
B4: MBP-tagged CCDC22-CCDC93 DBD dimer, CCDC93 E410R (complex, human)
chain 1: B3 chain
chain 2: B1 chain with E106R
notes: CCDC22, human, DBD; CCDC93, human, DBD; source: E. coli BL21 (DE3) T1R, purified; not shown: MBP, N-terminal, kept
B5: MBP-tagged CCDC22-CCDC93 DBD dimer (complex, human)
chain 1: B3 chain
chain 2: B1 chain
notes: CCDC22, human, DBD (CC1, CC2a); CCDC93, human, DBD (CC1, CC2a); also called DBD heterodimer; source: E. coli BL21 (DE3) T1R, purified (amylose, mixed about 1:1, Source 15Q, Superdex 200); not shown: MBP, N-terminal, kept

Residue numbers refer to the chain shown, from its start. Numbers in names are those of the source.

Common to all, as to conditions: both partners purified
In assay [1] the target is B3. The assay is described as follows: SEC; untagged DBD dimer and DENND10, alone and mixed; Superdex 200, 100 mM NaCl, 10 mM HEPES pH 7.0, 5% glycerol, 1 mM DTT; SDS-PAGE of fractions.
Assay [2] concerns the target T1, DENND10, full length, His6 tag removed (human, UniProt Q8TCE6 1-357).
T1 construct: DENND10 (FAM45A), human, codon-optimised gene; source: E. coli BL21 (DE3) T1R, purified (Source 15Q, TEV cleavage, Source 15Q); not shown: His6, N-terminal, cleaved
Described as above.

The next assay addresses T2, MBP-CCDC22 (280-446) (human, UniProt O60826 280-446).
T2 construct: CCDC22, human, DBD; also called MBP-CCDC22 DBD; source: E. coli BL21 (DE3) T1R, purified (amylose); not shown: MBP, N-terminal, kept
As to the kind of experiment: reconstitution by mixing and co-purification; amylose-purified MBP-tagged CCDC22 and CCDC93 fragments mixed about 1:1, overnight at 4 °C, then Source 15Q and Superdex 200.

Assay [3] deals with T3, His6-Tev-DENND10, full length (pull-down prey) (human, UniProt Q8TCE6 1-357).
T3 construct: DENND10 (FAM45A), human, codon-optimised gene; source: E. coli BL21 (DE3) T1R, purified (Ni-NTA, Source 15Q, Superdex Increase 200)
T3 sequence (Q8TCE6 whole entry): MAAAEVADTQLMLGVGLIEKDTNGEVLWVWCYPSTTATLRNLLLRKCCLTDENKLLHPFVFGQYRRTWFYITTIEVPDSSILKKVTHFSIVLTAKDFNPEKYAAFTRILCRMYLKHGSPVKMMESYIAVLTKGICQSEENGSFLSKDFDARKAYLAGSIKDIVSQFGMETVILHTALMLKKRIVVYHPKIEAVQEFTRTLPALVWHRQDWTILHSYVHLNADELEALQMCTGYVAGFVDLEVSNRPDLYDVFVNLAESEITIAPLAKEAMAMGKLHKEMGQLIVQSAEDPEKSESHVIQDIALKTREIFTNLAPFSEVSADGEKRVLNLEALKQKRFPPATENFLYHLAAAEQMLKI
The assay is described as follows: pull-down; MBP-tagged DBD dimer (200 pmol) as bait on amylose beads, DENND10 (500 pmol) as prey; 10 mM HEPES pH 7, 150 mM NaCl, 5% glycerol, 0.05% Triton X-100, 5 mM beta-mercaptoethanol, 4 °C, 30 min; Coomassie.

T1 sequence (Q8TCE6 whole entry): as above

Regarding B1, the binding result in assay [1] and in assay [2] was “binds” throughout.
Regarding B2, in the assay with MBP-CCDC22 (280-446), the binding result is given as “binds”.
Take B3: the binding result in assay [2] is recorded as “binds”.
For B4, the binding result in assay [3] was “binds”.
On the same count and under the same terms, the result for B5 reads “binds”.

(Values after PMC10312975 (Research Square, 2023).)
